Source: article PMC5915575
Substitutions are numbered along the chain they refer to.

Experiments:
Details in all cases: EMSA: 10 mM Tris-HCl pH 7.5, 1 mM EDTA, 50 mM NaCl, 5% glycerol, 30 min room temperature, 10 pmol DNA, 0-18 ug protein, 5% native PAGE at 4 °C; BLI: PBS pH …
[1] = tested on: T1, SigB(Q225P) Q224P (Staphylococcus aureus (strain of the cloned gene not stated; XQW or Newman-SigB(Q225P)?)), ORF:92324cdd; experiment: EMSA
T1 sequence: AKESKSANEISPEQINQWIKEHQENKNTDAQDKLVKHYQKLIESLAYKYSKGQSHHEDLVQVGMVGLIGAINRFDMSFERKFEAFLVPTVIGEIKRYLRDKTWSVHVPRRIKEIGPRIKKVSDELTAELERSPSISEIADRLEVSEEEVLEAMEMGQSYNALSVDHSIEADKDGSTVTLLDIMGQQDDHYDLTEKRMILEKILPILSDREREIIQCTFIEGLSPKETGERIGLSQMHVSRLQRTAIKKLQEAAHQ

[2] = tested on: T2, SigB (Staphylococcus aureus (strain of the cloned gene not stated; Newman or XQ?)), ORF:92324cdd; experiment: EMSA
T2 sequence: T1 sequence with P224Q

[3] = tested on: SigB(Q225P) (Staphylococcus aureus (strain of the cloned gene not stated; XQW or Newman-SigB(Q225P)?)); experiment: BLI
[4] = tested on: SigB (Staphylococcus aureus (strain of the cloned gene not stated; Newman or XQ?)); experiment: BLI

Substance	binding [1]	binding [2]	Kd [3]	Kd [4]
ACGCATAGGGACTTCGTGACCATTTACAGTCACAACTTTACTTAAGTTAATAAGTGTTAATTCATCAAACGACAGTTGTTCAACTGGTTGATGATGGTATTTCTTCATTCTTGTAAGTAAATTATTAATACGTAAAACGAGTTCCCTTGGACTAAATGGTTTTTTGACATAGTCATCTGCACCTAAAGTTAAGGCG (double strand) [saeR coding region fragment]	no binding	no binding		
biotin-labeled nuc promoter (BLI)			273 nM	113 nM
